# Experimental data: publication PMC4695161
# Key:
# [1] = biological target: ornithine decarboxylase (Homo sapiens) (UniProt P11926); test: analytical ultracentrifugation; conditions: cited from earlier work
# [2] = biological target: antizyme inhibitor (Homo sapiens) (UniProt O14977); test: analytical ultracentrifugation; conditions: cited from earlier work
# [3] = biological target: C-terminal AZ peptide AZ(100-228) (human) (UniProt P54368); test: AUC; sedimentation velocity; AZ or AZ peptide at a fixed concentration, three concentrations of CCND1; 30 mM Tris-HCl pH 7.4, 50 mM NaCl; global fit (SEDPHAT) to A+B↔AB hetero-association
# [4] = biological target: human cyclin D1 (CCND1) (human) (UniProt P24385); test: AUC; sedimentation velocity of CCND1 alone at 0.05, 0.1 and 0.3 mg/ml, 30 mM Tris-HCl pH 7.4, 20°C; global fit (SEDPHAT) to monomer-dimer equilibrium; dimer to monomers
# Sequence of human cyclin D1 (CCND1) (P24385 whole entry): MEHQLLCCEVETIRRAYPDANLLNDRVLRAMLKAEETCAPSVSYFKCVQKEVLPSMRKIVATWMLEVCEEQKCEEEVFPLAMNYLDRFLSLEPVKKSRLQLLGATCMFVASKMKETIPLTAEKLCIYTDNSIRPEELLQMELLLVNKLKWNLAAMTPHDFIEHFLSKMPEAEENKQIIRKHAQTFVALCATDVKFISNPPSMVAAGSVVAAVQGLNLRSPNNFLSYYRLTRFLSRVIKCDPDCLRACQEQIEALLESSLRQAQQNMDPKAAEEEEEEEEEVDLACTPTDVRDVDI
# Sequence of antizyme (P54368 whole entry): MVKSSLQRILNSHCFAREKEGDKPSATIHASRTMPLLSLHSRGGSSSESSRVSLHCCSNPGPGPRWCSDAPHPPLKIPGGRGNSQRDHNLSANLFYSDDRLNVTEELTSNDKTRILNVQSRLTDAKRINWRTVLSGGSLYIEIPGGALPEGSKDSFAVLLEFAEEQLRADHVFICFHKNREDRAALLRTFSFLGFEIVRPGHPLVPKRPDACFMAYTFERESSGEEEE
# Sequence of antizyme inhibitor (Homo sapiens) (O14977 whole entry): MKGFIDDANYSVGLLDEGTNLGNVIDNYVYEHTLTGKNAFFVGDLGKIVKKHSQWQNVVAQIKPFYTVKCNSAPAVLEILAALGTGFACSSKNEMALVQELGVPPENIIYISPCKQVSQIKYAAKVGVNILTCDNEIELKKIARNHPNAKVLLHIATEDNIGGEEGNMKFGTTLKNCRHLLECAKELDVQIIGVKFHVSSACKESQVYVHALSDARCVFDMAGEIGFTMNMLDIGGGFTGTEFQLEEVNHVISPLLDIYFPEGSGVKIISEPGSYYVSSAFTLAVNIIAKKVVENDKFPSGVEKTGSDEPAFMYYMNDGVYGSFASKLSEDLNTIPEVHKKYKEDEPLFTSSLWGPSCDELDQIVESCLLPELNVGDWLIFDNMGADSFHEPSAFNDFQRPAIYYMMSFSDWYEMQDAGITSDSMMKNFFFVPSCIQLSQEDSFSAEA
# Sequence of C-terminal AZ peptide AZ(100-228) (human) (P54368 100-228): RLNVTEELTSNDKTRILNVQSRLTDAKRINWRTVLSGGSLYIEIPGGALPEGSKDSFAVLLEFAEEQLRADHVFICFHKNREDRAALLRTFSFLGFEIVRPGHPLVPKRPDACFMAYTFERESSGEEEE
# Sequence of ornithine decarboxylase (Homo sapiens) (P11926 whole entry): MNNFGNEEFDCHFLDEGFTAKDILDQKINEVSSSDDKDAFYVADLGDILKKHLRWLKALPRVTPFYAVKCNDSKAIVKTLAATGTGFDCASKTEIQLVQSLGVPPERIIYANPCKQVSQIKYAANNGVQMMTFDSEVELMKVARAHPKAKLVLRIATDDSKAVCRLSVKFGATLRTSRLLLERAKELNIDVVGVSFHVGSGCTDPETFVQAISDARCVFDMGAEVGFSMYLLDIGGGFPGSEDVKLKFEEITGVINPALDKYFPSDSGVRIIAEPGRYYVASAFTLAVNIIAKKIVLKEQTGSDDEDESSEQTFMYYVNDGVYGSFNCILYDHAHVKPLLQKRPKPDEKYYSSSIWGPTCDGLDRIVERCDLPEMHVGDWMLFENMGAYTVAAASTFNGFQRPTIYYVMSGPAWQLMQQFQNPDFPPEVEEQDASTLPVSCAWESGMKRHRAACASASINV
substance,measurement,setting,value
antizyme (from UniProt P54368),Kd,[1],0.21 µM
same,Kd,[2],0.02 µM
human cyclin D1 (CCND1) (from UniProt P24385 1-295) (natural protein),Kd,[3],14.1 µM
human cyclin D1 (CCND1) (from UniProt P24385 1-295) (natural protein; other documents disagree on this pair),Kd,[4],3.84 µM
same,stoichiometry N,[4],2
